Source: the DeepSol protein solubility set

Assay: soluble on expression in E. coli; label from the status in PepcDB or PDB records
In the case of “DLTAIIGLEVHVQLETDTKIFCGCSTDTDDADPNTHTCPVCLGLPGALPTLNEGAVEAAVKLGKAIDADIPERTRFHRKNYFYPDLPKGFQITQYDAPICQDGELEVGTADDRRAIGIERAHLEEDPGSLQHVGGSIEDADYTLVDYNRAGTPLMEIVTRPDFRAAEEVRSFLAKLTSVLEYLGVFDAERDGSLRVDANISMVDSAELAGEGGPSDDVLEAANRTEVKNISSHRAAQKALAYETTRQRNQLER”, the “soluble on expression in E. coli” value is reported as “not soluble”.
For “DNKINIGLAVMKILESWGADTIYGIPSGTLSSLMDAMGEEENNVKFLQVKHEEVGAMAAVMQSKFGGNLGVTVGSGGPGASHLINGLYDAAMDNIPVVAILGSRPQRELNMDAFQELNQNPMYDHIAVYNRRVAYAEQLPKLVDEAARMAIAKRGVAVLEVPGDFAKVEIDNDQWYSSANSLRKYAPIAPAAQDIDAAVELLNNSKRPVIYAGIGTMGHGPAVQELARKIKAPVITTGKNFETFEWDFEALTGSTYRVGWKPANETILEADTVLFAGSNFPFSEVEGTFRNVDNFIQIDIDPAMLGKRHHADVAILGDAALAIDEILNKVDAVEESAWWTANLKNIANWREYINMLETKEEGDLQFYQVYNAINNHADEDAIYSIDVGNSTQTSIRHLHMTPKNMWRTSPLFATMGIAIPGGLGAKNTYPDRQVWNIIGDGAFSMTYPDVVTNVRYNMPVINVVFSNTEYAFIKNKYEDTNKNLFGVDFTDVDYAKIAEAQGAKGFTVSRIEDMDRVMAEAVAANKAGHTVVIDCKITQDRPIPVETLKLDSKLYSEDEIKAYKERYEAANLVPFREYLEAEGLESKYIK”, the “soluble on expression in E. coli” value was “soluble”.
For “DPDEDSDNSAIYVQGLNDSVTLDDLADFFKQCGVVKMNKRTGQPMIHIYLDKETGKPKGDATVSYEDPPTAKAAVEWFDGKDFQGSKLKVSLARKKPPMN”, the “soluble on expression in E. coli” value was “soluble”.
For “DQALATALPGKWIHLRILALANAHIVIDEVHTLDHYQTALLENILPILAKLKTKITFLTATMPSWQRTKLLTAYGGEDLQIPPTVFPAAETVLPGQFNRTLIDSDSTTIDFTMEETSYDHLVESHVKWHQTTRLNAPHARIGLICNTVKRAQEIAAALEKTNDRIVLLHSRMTTEHRRRSAELLESLLGPNGNRKTITVVGTQAIEASLDIDLDILRTELCPAPSLVQRAGRVWRRNDPYRSSRITADHKPISVVFIAEAEDWQVLPYLRAETSRTQRWLEKHNQMFLPQMAQEFIDAATVDLDTATSEMDLDALALMGIHLMKADGAKARIQDVLNSDSKVSDFALLTSKNEIDEAQTRLIEEGTHLRIILGDENESIPGGWKHGLSSLLKLKASDRESLRTALLASIPLLVSEKQKQLLYQHN”, the “soluble on expression in E. coli” value was “not soluble”.
For “DQGIVIYNAQHENLVKSWVDGFTKDTGIKVTLRNGGDSELGNQLVQEGSASPADVFLTENSPAMVLVDNAKLFAPLDAATLAQVEPQYRPSHGRWIGIAARSTVFVYNPAKLSDAQLPKSLLDLAKPEWKGRWAASPSGADFQAIVSALLELKGEKATLAWLKAMKTNFTAYKGNSTVMKAVNAGQVDSGVIYHYYPFVDGAKTGENSNNIKLYYFKHQDPGAFVSISGGGVLASSKHQQQAQAFIKWITGKQGQEILRTNNAFEYAVGVGAASNPKLVPLKDLDAPKVDAAQLNSKKVVELMTEAGLL”, the “soluble on expression in E. coli” value was “soluble”.
For “DREELDKQLRHERERFRLLVDAVENYAIFLLDPDGLIQSWNVGAKQLTQYEESDILGEHVSTFHTEKQVADGIPEQLLQEAEECGKAIDRGLRVRKDGSTFWADVTVTALQENSDARGFAKVIKDIT”, the “soluble on expression in E. coli” value was “not soluble”.
For “DRTIPDYTSFNTVDEWLDAIKMSQYKESFASAGFTTFDIVSQMTVEDILRVGVTLAGHQKKILNSIQVMRAQMNQ”, the “soluble on expression in E. coli” value was “soluble”.
In the case of “DSDDRVTPPAEPLDRMPDPYRPSYGRAETVVNNYIRKWQQVYSHRDGRKQQMTEEQREWLSYGCVGVTWVNSGQYPTNRLAFASFDEDRFKNELKNGRPRSGETRAEFEGRVAKESFDEEKGFQRAREVASVMNRALENAHDESAYLDNLKKELANGNDALRNEDARSPFYSALRNTPSFKERNGGNHDPSRMKAVIYSKHFWSGQDRSSSADKRKYGDPDAFRPAPGTGLVDMSRDRNIPRSPTSPGEGFVNFDYGWFGAQTEADADKTVWTHGNHYHAPNGSLGAMHVYESKFRNWSEGYSDFDRGAYVITFIPKSWNTAPDKVKQGWP”, the “soluble on expression in E. coli” value is reported as “soluble”.
For “DVFQNKANVCWAKALVPVLKTAGIDMTTEQWNTVDYFETDKAHSAEIVLNQLCVRFFGLDLDSGLFSAPTVPLSIRNNHWDNSPSPNMYGLNKEVVRQLSRRYPQLPRAVATGRVYDMNTGTLRNYDPRINLVPVNRRLPHALVLHHNEHPQSDFSSFVSKLKGRTVLVVGEKLSVPGKMVDWLSDRPEATFRARLDLGIPGDVPKYDIIFVNVRTPYKYHHYQQCEDHAIKLSMLTKKACLHLNPGGTCVSIGYGYADRASESIIGAIARQFKFSRVCKPKSSLEETEVLFVFIGYDRKARTHNPYKLSSTLTNIYTGS”, the “soluble on expression in E. coli” value was “soluble”.
In the case of “DVQKKTFTKWINARFSKSGKPPINDMFTDLKDGRKLLDLLEGLTGTSLPKERGSTRVHALNNVNRVLQVLHQNNVELVNIGGTDIVDGNHKLTLGLLWSIILHWQVKDVMKDVMSDLQQTNSEKILLSWVRQTTRPYSQVNVLNFTTSWTDGLAFNAVLHRHKPDLFSWDKVVKMSPIERLEHAFSKAQTYLGIEKLLDPEDVAVRLPDKKSIIMYLTSLFEVLPQ”, the “soluble on expression in E. coli” value is reported as “soluble”.
For “DWNNQSIVKTGERQHGIHIQGSDPGGVRTASGTTIKVSGRQAQGILLENPAAELQFRNGSVTSSGQLSDDGIRRFLGTVTVKAGKLVADHATLANVGDTWDDDGIALYVAGEQAQASIADSTLQGAGGVQIERGANVTVQRSAIVDGGLHIGALQSLQPEDLPPSRVVLRDTNVTAVPASGAPAAVSVLGASELTLDGGHITGGRAAGVAAMQGAVVHLQRATIRRGDALAGGAVPGGAVPGGAVPGGFGPGGFGPVLDGWYGVDVSGSSVELAQSIVEAPELGAAIRVGRGARVTVPGGSLSAPHGNVIETGGARRFAPQAAPLSITLQAGAHAQGKALLYRVLPEPVKLTLTGGADAQGDIVATELPSIPGTSIGPLDVALASQARWTGATRAVDSLSIDNATWVMTDNSNVGALRLASDGSVDFQQPAEAGRFKVLTVNTLAGSGLFRMNVFADLGLSDKLVVMQDASGQHRLWVRNSGSEPASANTLLLVQTPLGSAATFTLANKDGKVDIGTYRYRLAANGNGQWSLVGAKAPP”, the “soluble on expression in E. coli” value was “soluble”.
With “DWVIPPINLPENSRGPFPQELVRIRSDRDKNLSLRYSVTGPGADQPPTGIFIINPISGQLSVTKPLDRELIARFHLRAHAVDINGNQVENPIDIVINVIDMNDNRPEFLHQVWNGSVPEGSKPGTYVMTVTAIDADDPNALNGMLRYRIVSQAPSTPSPNMFTINNETGDIITVAAGLDREKVQQYTLIIQATDMEGNPTYGLSNTATAVITVTD” the “soluble on expression in E. coli” value was “soluble”.
For “EADYKQATALELATLVREKKVTSEELVKIALAITKRENPTLNAVITLREEAALTEAKALQDTGQPFLGVPLLLKGLGQSLKGESNTNGFGFLQDQVAGGTSTFVKALQNAGFIIIGQTNYPELGWKNISDSKLYGVSVNPWNPNHYSGGSSGGAGASVAAAFVPIASGSDAGGSIRIPASWTGTVGLKPSRGVIIGNSNSAKGQTVHFGLSRTVADTNALFETLLTKKDLPAGHLSQAQPIAYTTESPAGTPISAEAKEAVAEAVAFLKDQGYTLVEVKHPVDGERLMKNYYTVAAGSAGIADFMARQKLKRPLERNDVELLTWALFQTGKNITSEETTAAWTDIALQAQAMDEFYQQYPILLTPTTAATAPSIDNPLLKPEHAAQMEKIDQLSPAEQKQLIYDQWLTAFTYTPFTQQANLFGHPALSVPTYVSKEGLPLGIQFNSALNEDRTLLQLGALFENNHK”, the “soluble on expression in E. coli” value was “not soluble”.
For “EAVIVVDERDVVIDLNPQAKAIIGTPGAAWIGRPLEDVLPGLIELRDSPTDDIPDRAEITVPVNGEERAYEVRQTPLHRGYGTVTGQLITLTD”, the “soluble on expression in E. coli” value was “not soluble”.
In the case of “EAYLGVMINDLVTKEISDPYRLLTSRAEHRLWLRNDNLQERLIEKSRALGLVEADVYANYLEQQQKKKQLIDYLQTTTVGQIAALKLNFKNTAQTLFDFTKRAEIKLVDLVQLLPKRFDLDVQSLNQIDIDIKYAGYIKKSEKYFKSLNNLSSVKIPLKLNYHKVPNLASEAIVKLSKIRPTDLSVASQVAGINFNDILAIKHFLDNHE”, the “soluble on expression in E. coli” value is reported as “soluble”.
With “EDGRILKRFCQCEQRSLEQLMKDPLRPFVPAYYGMVLQDGQTFNQMEDLLADFEGPSIMDCKMGSRTYLEEELVKARERPRPRKDMYEKMVAVDPGAPTPEEHAQGAVTKPRYMQWRETMSSTSTLGFRIEGIKKADGTCNTNFKKTQALEQVTKVLEDFVDGDHVILQKYVACLEELREALEISPFFKTHEVVGSSLLFVHDHTGLAKVWMIDFGKTVALPDHQTLSHRLPWAEGNREDGYLWGLDNMICLLQGLAQS” the “soluble on expression in E. coli” value was “soluble”.
With “EEHLSVMYERLRQELPKLFLQSHDYSLYSLDVEFINEILNIRTKGRTWYILSLTLCRFLAWNYFAHLRLEVLQLTRHPENWTLQARWRLVGLPVHLLFLRFYKRDKDEHYRTYDAYSTFYLNSSGLI” the “soluble on expression in E. coli” value was “soluble”.
With “EEQIMRRNEDSWLIDGATPLEDVMRALNIHTFPRDENYETIGGFMMYMLRKIPKKTDFVLYDKYKFEIIDTENFRIDQLMVSFRK” the “soluble on expression in E. coli” value was “soluble”.
For “EESPFVGNPGNITGARGLTGTLRCQLQVQGEPPEVHWLRDGQILELADSTQTQVPLGEDEQDDWIVVSQLRITSLQLSDTGQYQCLVFLGHQTFVSQPGYVGLEGLPYFLEEPEDRTVAANTPFNLSCQAQGPPEPVDLLWLQDAVPLATAPGHGPQRSLHVPGLNKTSSFSCEAHNAKGVTTSRTATITVLPQQ”, the “soluble on expression in E. coli” value was “soluble”.
With “EFGQNRATLLASIDVALEHAELFAADDDQMGLFLDESFSIKPKYVETEELPLVDLLAFEKETLGIYFSNHPLSAFRKQLTAQGAVSILQAQRAV” the “soluble on expression in E. coli” value was “not soluble”.
For “EFVGRGIGNSVREDLSFNLLLSSDMDETQAQELQRQIAATPFVKDVSYISADQALEEMKKELGEDDPAKMLGYNPLQAEMCVHLKAQYTHPDSLKTIDSAIRTWNGVDNLEYRADMFDIVHRNTRR”, the “soluble on expression in E. coli” value was “not soluble”.
For “EGFRIAFISDLHYKSLLKEKGLNNLVDLLIAQKPDVLLMGGDYQEGCEYVEPLFAALARVKTPMGTFGVMGNNDYERCHDEIIRTMKHYGMRPLEHEVDTLRKDGQQIILAGVRNPFDLKQNGVSPTLALSPNDFVILLVHTPDYVEDVSVANTDIALAGHTHGGQVRVFGYAPIQNSHYGTRF”, the “soluble on expression in E. coli” value was “not soluble”.
In the case of “EGLLNNHLDIPTATTQALTIQPSASYRINDHWSVGAALGIQYGMYEVETKGALNFNDEDQDTQLNGRVGVLYEATPGTRLGLSYSSETEFEFDNSNSIAPQQLIFSAYHEVNDDLAVMWNVNWQDWSEYTTTLKAADLVDVETQDTYQIALGTQYKLNEKMMWNAGFAFDTSMYESQSNGDITVPTGKAYRIGTGIDYKLDSENSIGFAFEAVLMESSETPRLQAGFDEPALYFMSMSYNWKN”, the “soluble on expression in E. coli” value is reported as “not soluble”.
In the case of “EIINEEGKLERKADMFTRRTIQTHRAVTSVDTAVEALAVSIGEKACVDLGYMASLMGGPEKIPQIVEDLKGIIFKNPATGPFDLEDGGAHWHQGWQTADEYLSGNVRAKLAIARAAAEENPQFAINAEKLEQVQPKDLTASEISVRIGASWIDPEYYQQFMFELLHTPVYLQDRKIKLQYSPTTGEWNVQGKSTDNRDNVRVYATYGTKRINAYEIFEQTLNQRDVRIFDKTEVDGKEVRVLNEKQTAIAQQKQEAMCETFKDWIFKDPERRETLCRRYNEKFNCIRPREYDGSHIRFAGMNPEISLRTHQ”, the “soluble on expression in E. coli” value is reported as “not soluble”.
